In publication PMC9898865 one finds fold weaker than the binding to the physiological ligand (fibronectin) data, which are given here for 1 substance.

This experiment deals with SARS-CoV-2 S protein (residues 1-1212 with stabilizing mutations R684G, R685S, R678G, K998P and V999 (SARS-CoV-2) (UniProt P0DTC2)). Kind of experiment: ELISA; ELISA-like solid-phase binding: ligands coated on 96-well plates in TBS, 6 h RT (S protein 20 µg/ml, vitronectin 5 µg/ml, fibrinogen 20 µg/ml, fibronectin 10 µg/ml); velcro-tagged integrins at 10 µg/ml in 20 mM Hepes, 150 mM NaCl, 1 mM MnCl2, pH 7.2, 2 h RT; detected by biotinylated anti-velcro antibody, streptavidin-HRP, ABTS, 405 nm.

Substance “velcro-tagged integrin α5β1 (from UniProt P08648 42-995; P05556 21-728) (receptor)” returned a fold weaker than the binding to the physiological ligand (fibronectin) of under 10 fold.
